Target: T1, GST-FOXD3 (Mus musculus, UniProt Q61060 1-465)
T1 sequence: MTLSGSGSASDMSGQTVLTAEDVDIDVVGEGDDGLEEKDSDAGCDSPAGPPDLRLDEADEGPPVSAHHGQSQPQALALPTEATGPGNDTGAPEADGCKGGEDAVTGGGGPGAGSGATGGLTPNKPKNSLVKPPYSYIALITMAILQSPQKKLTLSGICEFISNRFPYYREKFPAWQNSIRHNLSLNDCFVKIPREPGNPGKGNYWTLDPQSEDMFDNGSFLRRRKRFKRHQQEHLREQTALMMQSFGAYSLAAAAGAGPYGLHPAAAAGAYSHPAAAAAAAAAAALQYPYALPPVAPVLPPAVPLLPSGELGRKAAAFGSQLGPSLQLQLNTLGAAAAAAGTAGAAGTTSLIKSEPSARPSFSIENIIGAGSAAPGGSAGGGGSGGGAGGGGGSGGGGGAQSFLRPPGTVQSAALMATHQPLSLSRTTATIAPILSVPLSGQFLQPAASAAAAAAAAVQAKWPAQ
Test: EMSA

B1: MERVL-LTR (dsDNA)
DNA 1: AGACTCAAAGCAAAACAGGCTCCTAGAGGGGAGGT
DNA 2: ACCTCCCCTCTAGGAGCCTGTTTTGCTTTGAGTCT
  binding result: binds
